Experiments:
[1] = test system: Yeast cells that express hPMS2-R2; test: Chemical mutagen (EMS) plus MMR-defective yeast, ura mutant selection on 5-FOA plates; type: cell-based; settings: EMS 0-200 pM, 30-120 minutes; PMS2-R2 cultures induced with methanol vs uninduced parental or wild type strain
Source text: It has been previously documented that MMR deficiency yields to increased mutation frequency and increased resistance to toxic effects of chemical mutagens (CM) and their respective analogues such as but not limited to those as: ethidium bromide, EMS, MNNG, MNU, Tamoxifen, 8-Hydroxyguanine, as well as others listed but not limited to in publications by: Khromov-Borisov, N. N., et al. (1999) Mutat. Res. 430:55-74; Ohe, T. et al. (1999) Mutat. Res. 429:189-199; Hour, T. C. et al. (1999) Food Chem. Toxicol. 37:569-579; Hrelia, P. et al. (1999) Chem. Biol. Interact. 118:99-111; Garganta, F. et al. (1999) Environ. Mol. Mutagen. 33:75-85; Ukawa-Ishikawa S. et al. (1998) Mutat. Res. 412:99-107; www.ehs.utah.edu/ohh/mutagens; Marcelino, L. A. et al (1998) Cancer Res. 58(13):2857-2862; Koi, M. et al. (1994) Cancer Res. 54:4308-4312. Mismatch repair provokes chromosome aberrations in hamster cells treated with methylating agents or 6thioguanine, but not with ethylating agents.
Yeast cells that express hPMS2-R2 (induced or un-induced) and empty vector control cells are grown as described in Examples 5 and 6) and for 24 hours and diluted into MM medium as described above. Next, the cells in MM are incubated either with or without increasing amounts of ethyl methane sulfonate (EMS) from 0, 1, 10, 50, 100, and 200 pM. […] Mutants are selected and scored as above. […]

wild type yeast cell = settings: mutagen treatment; Boeke et al. 1984; cited from earlier work
293 cells = test: β-galactosidase activity from MMR-sensitive pCAR-OF reporter; type: cell-based; settings: 293 cells expressing the homolog plus pCAR-OF reporter, grown 17 days; FIG. 5
Source text: Cells in which MMR activity is decreased results in MI leading to insertion-deletion mutations within the β-galactosidase gene, a subset of which will restore the open reading frame (ORF) and produce functional enzyme. Cells are grow for 17 days and then harvested for protein lysates to measure β-galactosidase activity generated by each cell line. Cells in which a high rate of mutagenesis has occurred will produce β-galactosidase activity, while cells in which MMR activity is functional will retain background levels of enzymatic activity. Each cell line was tested in two independent experiments (experiment 1 and experiment 2). Extracts were incubated with a calorimetric galactose substrate for 1 hour. Enzyme activity as a function of substrate conversion was measured by optical density at 576 nm as described (Nicolaides, N. C. et al. (1998) Mol. Cell. Biol. 18:1635-1641). […] MI was monitored at the gene level to confirm that genetic alterations occurred within the polynucleotide repeat disrupting the β-galactosidase ORF.

[2] = test system: Pichia pastoris yeast cells; test: Generation of uracil requiring mutants, 5-FOA selection after methanol induction; type: cell-based
Method: Pichia pastoris yeast cells were transformed with pPIC3.5K vector, pPIC3.5K-PMS134, and pPIC3.5K-hR2 as follows. First, 5 ml of YPD (1% yeast extract, 2% bacto-peptone, 1% dextrose) medium was inoculated with a single colony from a YPD plate (same as YPD liquid but add 2% Difco agar to plate) and incubated with shaking overnight at 30° C. The overnight culture was used to inoculate 500 ml of YPD medium (200 ul of overnight culture) and the culture incubated at 30° C. until the optical density at 600 nm reached 1.3 to 1.5. The cells were then spun down (4000×g for 10 minutes), and then washed 2 times in sterile water (one volume each time), then the cells suspended in 20 ml of 1 M sorbitol. The sorbitol/cell suspension was spun down (4,000×g for 10 minutes) and suspended in 1 ml of 1 M sorbitol. 80 ul of the cell suspension was mixed with 5 to 10 ug of linearized plasmid DNA and placed in a 0.2 cm cuvette, pulsed length 5 to 10 milliseconds at field strength of 7,500 V/cm. Next, the cells are diluted in 1 ml of 1 M sorbitol and transferred to a 15 ml tube and incubated at 30° C. for 1 to 2 hours without shaking. Next, the cells are spun out (4,000×G for 10 minutes) and suspended in 100 ul of sterile water, and 50 ul/plate spread onto the appropriate selective medium plate. The plates are incubated for 2 to 3 days at 30° C. and colonies patched out onto YPD plates for further testing. […]

CCOS(C)(=O)=O [EMS, ethyl methane sulfonate]
frequency of ura mutants [1]: increase in the frequency of ura mutants
number of ura mutants (wild type yeast cell): low number of ura mutants

B1: PMSR3: human PMS2 homolog, dominant negative mismatch repair inhibitor (SEQ ID NO:19/20) (protein, listed as Homo sapiens)
chain: MCPWRPRLGRRCMVSPREADLGPQKDTRLDLPRSPARAPREQNSLGEVDRRGPREQTRAPATAAPPRPLGSRGAEAAEPQEGLSATVSACFQEQQEMNTLQGPVSFKDVAVDFTQEEWRQLDPDEKIAYGDVMLENYSHLVSVGYDYHQAKHHHGVEVKEVEQGEEPWIMEGEFPCQHSPEPAKAIKPIDRKSVHQICSGPVVLSLSTAVKELVENSLDAGATNIDLKLKDYGVDLIEVSDNGCGVEEENFEGLISFSSETSHM
microsatellite instability / β-galactosidase activity (293 cells): high degree of MI leading to an increase in β-galactosidase activity

B2: PMSR2: human PMS2 related gene/protein, PMS2 homolog, dominant negative mismatch repair inhibitor (SEQ ID NO:17/18) (protein, listed as Homo sapiens)
chain: MAQPKQERVARARHQRSETARHQRSETAKTPTLGNRQTPTLGNRQTPRLGIHARPRRRATTSLLTLLLAFGKNAVRCALIGPGSLTSRTRPLTEPLGEKERREVFFPPRPERVEHNVESSRWEPRRRGACGSRGGNFPSPRGGSGVASLERAENSSTEPAKAIKPIDRKSVHQICSGPVVPSLRPNAVKELVENSLDAGATNVDLKLKDYGVDLIEVSGNGCGVEEENFEGFTLKHHTCKIQEFADLTQVETFGFRGEALSSLCALSDVTISTCRVSAKVGTRLVFDHYGKIIQKTPYPRPRGMTVSVKQLFSTLPVHHKEFQRNIKKKRACFPFAFCRDCQFPEASPAMLPVQPVELTPRSTPPHPCSLEDNVITVFSSVKNGPGSSR
microsatellite instability / β-galactosidase activity (293 cells): high degree of MI leading to an increase in β-galactosidase activity
uracil requiring clones on 5-FOA selection medium ([2]; methanol induced culture): have clones that are capable of growth on the selection medium
colonies resistant to 5-FOA ([2]; uninduced culture): does not have any colonies that are resistant to 5-FOA
